Results taken from the NTF2 design screens of Basanta et al. (2020).

experiment: protease stability score; higher = more stable; yeast display proteolysis, trypsin and chymotrypsin;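 note: log10 excess protease needed over predicted unfolded state with 0 meaning unfolded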

Row | Sequence | protease stability score
1 | DETAKKHFEELMKVWKHGDFRRAQELLDPNVRVVIGDQQFHGREDVAKKIAEHLHRMEVEIKDYRVKNDGEKIHIEVDAVFERNGRPERRRYVAVYRVHNGRFKEMSQQEDK | 1.05
2 | DETAKKNVELYVQAFEDNDERKLNHMMDPNAHFRIGDRNVHGRDQVKDEVEKRRKEQSVKFKDVKVDVQGDKATIEIRWVVDKNGEPTEDVHKVDLKIHNGRAKYMQWDSVR | -0.07
3 | DETALRIAEDWFRALQNGNPERMQENVDPNARVQIGDKELHGREQIHELAQKIKEEMRIEVNITHVDVHGEHLRLEFDIRVDINGKPVTNHNTAEFNVENGSIKHISFDIDPRQLNKMQK | 0.746
4 | DETAMEVAERFLENINNGNPEEATKQFDPNARFIVGDKRLTGQEQVKSEIEDQKKHIDVNYDVKRVEIDGDKALLELDVQNEHNGRPRTDSAVITMEAHNGKITHMQRDHDG | -0.594
5 | DETAQDLVTTLIEAWKTNDPDSVANLMDPNATVKIGDKSVHGKKQLEEMLKKLRDEMTIDIKRVDVKVNNGDAKVNARATFTHNGKPDSRTMSAEVEWNGDKVKEFRVHWEQ | 1
6 | DETAQEQAKKLFQARQTNDPDKVNNLLDENARVNIGDTSVQGREDASKEVERQHRESHQSVELKEVKVDGDHVELHYVLTKQENGKPDSNKASMNVQIHNGKAQDVQIQTSK | -0.35
7 | DETAQKVANQFFEALKNGDPDQVRRLLDKNATVRIGEWQVHGREQASKDVHQNKQHAEYDWRIRSVKVTGNKVDIDAEVTYQHNGEPSRRQMVVNVVVTNGKIQDIHVRDEQ | 1.43
8 | DETAQNLIKELNRAWNENNENQVAELMDPNAKLQIGNKVLTGRKQRMEEIRSQTHSMRLDYKYEDVKAKNGKVTANLRYVADVNGRPVDVTVSVKADVHNGVIVRLEVRLPPDVEEELKR | 0.219
9 | DETARDRLEELWRTMERNDPDKLTRQADKDVEVHVGDKELHGMKQVATTLAHEMREMDVEIEIREVNVQGNNVEVDMIFRAKVNGKPIHNKASFVVTFNNGKAESIELRVPPEFQKQKRK | -0.222
10 | DETARHRLEEMWTNIQRNNPSEVAKLADKDVRVRVGDKEIHGREQLNHHIKRFNDEIRMNVDHISIKVDGNEADIHIRAEFEVNGTPFEMTIDVKISVHNGKIKEIDRQVSEEEKRRLKK | 0.806
11 | DETASRAAERYMKALQTGDPDEVVKQIDPNVHVRVGDKEVQGKEQFRKKQERDKKQARYHIKHVTFNVEGDKVRVDVIFRKHHNGQPRHDRMEQRMSVRGDKITHQENHKTG | 0.02
12 | DETATEAAQRMMDNWRTNSPEDYAKLADKNVEVRVGDKTYTGRDELRSRLQRKREEQHIDLRTYHFRVNGDEVTVRARYIENHNGRPQHKVVRFVFRLHNGRVKEIERHDDS | 0.22
13 | DETAVEIARDFLQAITNNNPQEAERLADPNVRWTVGDKSYSGMNEFSKIIKDLNDRSRFEYTDVKLDVTNGRARIELRMSRTVNGKPQSFDMVMNVVVHNGRIKHVHVHNKQ | 1.4
14 | DETAVHAARRYLHAVTEGDPDKVNEQVDPNAKLTYGDKEVHGSSQVKEEVETQNRHSRIQYDSVTFDHQGDKVRADIDMKQDSNGRPKRRKMVVDFRAHNGKLQHVNAQDDN | -0.224
15 | DETAVKVIHKVVEAINTNNPKQVMKNMDKDVHITVGDKEYEGKEEFAKQVERDLREQRVDIDIKRLNVHNGKVHVKFTAQQQINGKPISYKATARAEVQNGKVQHMEIRVPEELQRKRES | -0.272
16 | DETAVRVFRKIEDAYQKGDPDKITNLLDENVEMHVGDKRVHGRETMAEHLKKQLDEIRQKIKSVTLHDKGDTIRIDVLMVEEHNGQPRESRYHVHAKIHNGKMKEREQTSVQ | -0.095
17 | DETAVTVLTEIVKAQRQGDHNRFNELVDPNAKIRVGDKRVTGREQLTHEFHKNLKHMRVHQKVHDMKDHNGRVQATAQRRSNHNGKPKEVEVQFQATARNGRLTQMEMHSSG | -0.643
18 | DETDKAHEFMRKMKRALDQNDPDKLMDLFDPNAKVKVGEKKIHGRERISNDLQRHAHNADHIHMEIQDMKVSGDKINITFRVTSVVNGNTRSNRVLIRARIDNGHIKAVDVQQK | 0.855
19 | DETDKAQKQFEHYERIAHTGDPDEMQRQADENARVEYGDKEVRGRKDVKKWAKDIKDTVDSVEFDIKSFEVQGDKITINVNIVYRSDGRQQSMEVNMVFDVRGDDIQIRSMKFR | 0.434
20 | DETDLEKFATIVQQNNPHEFKKLLPEDAKMTYGDKTVHGREEIQRILENLVKDVDRLRIKHYKISGDKIEIDLVVNVNGRNIRFSLRAKMHNGQIKFFEIEVRDDDVKHELEKMLS | 0.069
